Substitutions are numbered along the chain they refer to.
T1: human CD22 (human, UniProt P20273 20-687, limits assumed)
T1 construct: also called SIGLEC-2; human CD22 protein
T1 sequence (looked up): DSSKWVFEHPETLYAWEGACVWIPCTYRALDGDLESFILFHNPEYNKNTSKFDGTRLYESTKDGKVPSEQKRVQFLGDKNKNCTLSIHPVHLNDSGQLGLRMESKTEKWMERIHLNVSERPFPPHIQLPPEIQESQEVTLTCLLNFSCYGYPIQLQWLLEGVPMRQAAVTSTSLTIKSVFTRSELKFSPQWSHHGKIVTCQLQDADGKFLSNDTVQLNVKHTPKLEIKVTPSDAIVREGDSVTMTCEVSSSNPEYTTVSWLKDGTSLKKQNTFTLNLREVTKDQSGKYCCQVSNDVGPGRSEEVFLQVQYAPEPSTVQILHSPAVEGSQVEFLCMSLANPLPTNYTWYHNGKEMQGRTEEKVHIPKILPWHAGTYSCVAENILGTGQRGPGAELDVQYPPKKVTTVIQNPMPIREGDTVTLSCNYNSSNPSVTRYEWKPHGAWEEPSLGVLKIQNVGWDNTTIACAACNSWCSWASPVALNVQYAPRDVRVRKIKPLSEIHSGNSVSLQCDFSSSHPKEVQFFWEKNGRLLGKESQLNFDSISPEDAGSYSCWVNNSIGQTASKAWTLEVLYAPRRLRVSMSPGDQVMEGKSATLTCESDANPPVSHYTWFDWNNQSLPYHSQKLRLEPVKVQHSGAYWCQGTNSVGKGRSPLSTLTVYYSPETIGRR

B1: anti-CD22 heavy chain-only antibody Clone ID 335295 (antibody, V domains shown)
VH: QLQLQESGPGLVKPSETLSLTCTVSGGSISSSSYYWGWIRQPPGKGLEWIGSIYYSGATYYNPSLKNRVTISVDTSRNQFSLNLSSVTAADTAVYYCTREDSSSWRSRGQGTLVTVSS
notes: Heavy chain-only antibody (UniAb), no light chain
B2: anti-CD22 heavy chain-only antibody Clone ID 335179 (antibody, V domains shown)
VH: B1 VH with I39F, Q41H, E48D, Y54H, A58S, N67S, E100D, S104N
notes: as for B1
B3: anti-CD22 heavy chain-only antibody Clone ID 335301 (antibody, V domains shown)
VH: B1 VH with G27D, S32G, S33D, S52N, R77K, N83K
notes: as for B1
B4: anti-CD22 heavy chain-only antibody Clone ID 335297 (antibody, V domains shown)
VH: B1 VH with S52H
notes: as for B1
B5: anti-CD22 heavy chain-only antibody Clone ID 335307 (antibody, V domains shown)
VH: B1 VH with G27D, S32G, S33D, A58S, N67S, R77K, N83K
notes: as for B1
B6: anti-CD22 heavy chain-only antibody Clone ID 335323 (antibody, V domains shown)
VH: B1 VH with G27D, S32G, S33G, A58S, R77K, N83K
notes: as for B1
B7: anti-CD22 heavy chain-only antibody Clone ID 335316 (antibody, V domains shown)
VH: B1 VH with S52H, R77K, N83K
notes: as for B1
B8: anti-CD22 heavy chain-only antibody Clone ID 335333 (antibody, V domains shown)
VH: B1 VH with A58S, N67S, R77K, N83K, T98A
notes: as for B1
B9: anti-CD22 heavy chain-only antibody Clone ID 335311 (antibody, V domains shown)
VH: QLQLQESGPGLVKPSETLSLTCAVYGGSFSGYYWGWIRQPPGKGLEWIGHIYYSGATYYNPSLKNRVTISVDTSRNQFSLNLSSVTAADTAVYYCTREDSSSWRSRGQGTLVTVSS
notes: as for B1

What follows are binders tested against T1, human CD22 (assay: ELISA protein and cell-binding assays).

Binding result, binds:
B1, B2, B3, B4, B5, B6, B7, B8, B9

Source: patent publication US20210047402A1 (TENEOBIO, published 2021)
